Data as given in patent US20250025552A1 (published 2025).

Molecular target: the molecule itself
Test: gel filtration (Superdex 200) of His-caspase 11 after incubation with oxPAPC; self-association
Protocol: To measure the ability of oxPAPC to oligomerize caspase-11, monomer or oligomer fractions of His-caspase 11 were incubated with oxPAPC for 2 hours on ice, and then analyzed with Superdex 200 (10/300).

B1: His-caspase 11 (full length mouse caspase 11 with a TEV cleavable N-terminal 6xHis tag) (enzyme, UniProt P70343 1-373, looked up)
chain: MAENKHPDKPLKVLEQLGKEVLTEYLEKLVQSNVLKLKEEDKQKFNNAERSDKRWVFVDAMKKKHSKVGEMLLQTFFSVDPGSHHGEANLEMEEPEESLNTLKLCSPEEFTRLCREKTQEIYPIKEANGRTRKALIICNTEFKHLSLRYGANFDIIGMKGLLEDLGYDVVVKEELTAEGMESEMKDFAALSEHQTSDSTFLVLMSHGTLHGICGTMHSEKTPDVLQYDTIYQIFNNCHCPGLRDKPKVIIVQACRGGNSGEMWIRESSKPQLCRGVDLPRNMEADAVKLSHVEKDFIAFYSTTPHHLSYRDKTGGSYFITRLISCFRKHACSCHLFDIFLKVQQSFEKASIHSQMPTIDRATLTRYFYLFPGN
notes: Monomer or oligomer fractions from size exclusion chromatography were incubated with oxPAPC and run on Superdex 200; not shown: TEV cleavable N-terminal 6xHis tag from the pFastBac HT A vector
B1: binds.
